B1: Pistol ribozyme (parent)
chain: GGGUCGUUGUUCCAUAAUCGCGUGGAUAUGGCACGCAAGUUUCUACCGGGCACCGUAAAUGUCCGACUGGAGCCGUUCGGGCGGCUAUAAACAGACCUCAGGCCCGAAGCGUGGCGGCACCUGCCGCCGGUGGUAAAAAAGAUCGGAAGAGCACACGUCU

Variants of: B1
Assay: aptazyme ON/OFF ratio, guanine; higher = stronger switching; co-transcriptional cleavage with and without guanine

Row | Variant | aptazyme ON/OFF ratio
1 | GGGUCGAAAUACCAUAAUCGCGUGGAUAUGGCACGCAAGUUUCUACCGGGCACCGUAAAUGUCCGACUGGAGCCGUUCGGGCGGCUAUAAACAGACCUCAGGCCCGAAGCGUGGCGGCACCUGCCGCCGGUGGUAAAAAAGAUCGGAAGAGCACACGUCU [U7A U8A G9A U11A] | 1.16
2 | GGGUCGAAAGGGCAUAAUCGCGUGGAUAUGGCACGCAAGUUUCUACCGGGCACCGUAAAUGUCCGACUGGAGCCGUUCGGGCGGCUAUAAACAGACCUCAGGCCCGAAGCGUGGCGGCACCUGCCGCCGGUGGUAAAAAAGAUCGGAAGAGCACACGUCU [U7A U8A G9A U10G U11G C12G] | 1.52
3 | GGGUCGAAAGGUCAUAAUCGCGUGGAUAUGGCACGCAAGUUUCUACCGGGCACCGUAAAUGUCCGACUGGAGCCGUUCGGGCGGCUAUAAACAGACCUCAGGCCCGAAGCGUGGCGGCACCUGCCGCCGGUGGUAAAAAAGAUCGGAAGAGCACACGUCU [U7A U8A G9A U10G U11G C12U] | 1.33
4 | GGGUCGAAAGGUUAUAAUCGCGUGGAUAUGGCACGCAAGUUUCUACCGGGCACCGUAAAUGUCCGACUGGAGCCGUUCGGGCGGCUAUAAACAGACCUCAGGCCCGAAGCGUGGCGGCACCUGCCGCCGGUGGUAAAAAAGAUCGGAAGAGCACACGUCU [U7A U8A G9A U10G U11G C12U C13U] | 1.14
5 | GGGUCGAAAGGUAAUAAUCGCGUGGAUAUGGCACGCAAGUUUCUACCGGGCACCGUAAAUGUCCGACUGGAGCCGUUCGGGCGGCUAUAAACAGACCUCAGGCCCGAAGCGUGGCGGCACCUGCCGCCGGUGGUAAAAAAGAUCGGAAGAGCACACGUCU [U7A U8A G9A U10G U11G C12U C13A] | 1.25
6 | GGGUCGAAAGGUGAUAAUCGCGUGGAUAUGGCACGCAAGUUUCUACCGGGCACCGUAAAUGUCCGACUGGAGCCGUUCGGGCGGCUAUAAACAGACCUCAGGCCCGAAGCGUGGCGGCACCUGCCGCCGGUGGUAAAAAAGAUCGGAAGAGCACACGUCU [U7A U8A G9A U10G U11G C12U C13G] | 1.31
7 | GGGUCGAAAUAACAUAAUCGCGUGGAUAUGGCACGCAAGUUUCUACCGGGCACCGUAAAUGUCCGACUGGAGCCGUUCGGGCGGCUAUAAACAGACCUCAGGCCCGAAGCGUGGCGGCACCUGCCGCCGGUGGUAAAAAAGAUCGGAAGAGCACACGUCU [U7A U8A G9A U11A C12A] | 1.26
8 | GGGUCGAAAUAGCAUAAUCGCGUGGAUAUGGCACGCAAGUUUCUACCGGGCACCGUAAAUGUCCGACUGGAGCCGUUCGGGCGGCUAUAAACAGACCUCAGGCCCGAAGCGUGGCGGCACCUGCCGCCGGUGGUAAAAAAGAUCGGAAGAGCACACGUCU [U7A U8A G9A U11A C12G] | 1.24
9 | GGGUCGAAAUAAAAUAAUCGCGUGGAUAUGGCACGCAAGUUUCUACCGGGCACCGUAAAUGUCCGACUGGAGCCGUUCGGGCGGCUAUAAACAGACCUCAGGCCCGAAGCGUGGCGGCACCUGCCGCCGGUGGUAAAAAAGAUCGGAAGAGCACACGUCU [U7A U8A G9A U11A C12A C13A] | 1.17
10 | GGGUCGAAAUAAGAUAAUCGCGUGGAUAUGGCACGCAAGUUUCUACCGGGCACCGUAAAUGUCCGACUGGAGCCGUUCGGGCGGCUAUAAACAGACCUCAGGCCCGAAGCGUGGCGGCACCUGCCGCCGGUGGUAAAAAAGAUCGGAAGAGCACACGUCU [U7A U8A G9A U11A C12A C13G] | 1.21
11 | GGGUCGAAAUAAUAUAAUCGCGUGGAUAUGGCACGCAAGUUUCUACCGGGCACCGUAAAUGUCCGACUGGAGCCGUUCGGGCGGCUAUAAACAGACCUCAGGCCCGAAGCGUGGCGGCACCUGCCGCCGGUGGUAAAAAAGAUCGGAAGAGCACACGUCU [U7A U8A G9A U11A C12A C13U] | 1.07
12 | GGGUCGAAAGGGUAUAAUCGCGUGGAUAUGGCACGCAAGUUUCUACCGGGCACCGUAAAUGUCCGACUGGAGCCGUUCGGGCGGCUAUAAACAGACCUCAGGCCCGAAGCGUGGCGGCACCUGCCGCCGGUGGUAAAAAAGAUCGGAAGAGCACACGUCU [U7A U8A G9A U10G U11G C12G C13U] | 1.44
13 | GGGUCGAAAGGGGAUAAUCGCGUGGAUAUGGCACGCAAGUUUCUACCGGGCACCGUAAAUGUCCGACUGGAGCCGUUCGGGCGGCUAUAAACAGACCUCAGGCCCGAAGCGUGGCGGCACCUGCCGCCGGUGGUAAAAAAGAUCGGAAGAGCACACGUCU [U7A U8A G9A U10G U11G C12G C13G] | 1.55
14 | GGGUCGAAAGGGAAUAAUCGCGUGGAUAUGGCACGCAAGUUUCUACCGGGCACCGUAAAUGUCCGACUGGAGCCGUUCGGGCGGCUAUAAACAGACCUCAGGCCCGAAGCGUGGCGGCACCUGCCGCCGGUGGUAAAAAAGAUCGGAAGAGCACACGUCU [U7A U8A G9A U10G U11G C12G C13A] | 1.5
15 | GGGUCGAAAUAGAAUAAUCGCGUGGAUAUGGCACGCAAGUUUCUACCGGGCACCGUAAAUGUCCGACUGGAGCCGUUCGGGCGGCUAUAAACAGACCUCAGGCCCGAAGCGUGGCGGCACCUGCCGCCGGUGGUAAAAAAGAUCGGAAGAGCACACGUCU [U7A U8A G9A U11A C12G C13A] | 1.14
16 | GGGUCGAAAGGCAAUAAUCGCGUGGAUAUGGCACGCAAGUUUCUACCGGGCACCGUAAAUGUCCGACUGGAGCCGUUCGGGCGGCUAUAAACAGACCUCAGGCCCGAAGCGUGGCGGCACCUGCCGCCGGUGGUAAAAAAGAUCGGAAGAGCACACGUCU [U7A U8A G9A U10G U11G C13A] | 1.19
17 | GGGUCGAAAGGCUAUAAUCGCGUGGAUAUGGCACGCAAGUUUCUACCGGGCACCGUAAAUGUCCGACUGGAGCCGUUCGGGCGGCUAUAAACAGACCUCAGGCCCGAAGCGUGGCGGCACCUGCCGCCGGUGGUAAAAAAGAUCGGAAGAGCACACGUCU [U7A U8A G9A U10G U11G C13U] | 1.07
18 | GGGUCGAAAGGCGAUAAUCGCGUGGAUAUGGCACGCAAGUUUCUACCGGGCACCGUAAAUGUCCGACUGGAGCCGUUCGGGCGGCUAUAAACAGACCUCAGGCCCGAAGCGUGGCGGCACCUGCCGCCGGUGGUAAAAAAGAUCGGAAGAGCACACGUCU [U7A U8A G9A U10G U11G C13G] | 1.21

Source: the RNAGym collection of RNA variant scans (doi:10.1021/acssynbio.7b00057)
